{"source": "patent US20130115227A1", "about": "(Merck Sharp & Dohme, published 2013)", "binders": {"B1": {"name": "anti-ADDL antibody 19.3 (antibody, human IgG2, kappa, V domains shown)", "VH": "EVQLVESGGGLVQPGGSLRLSCAASGFTFSSFGMHWVRQAPGKGLEWVAYISRGSSTIYYADTVKGRFTISRDNAKNSLYLQMNSLRAEDTAVYYCARGITTALDYWGQGTLVTVSS", "VL": "DVVMTQSPLSLPVTPGEPASISCRSSQSIVHSNGNTYLEWYLQKPGQSPQLLIYKASNRFSGVPDRFSGSGSGTDFTLKISRVEAEDVGVYYCFQGSRLGPSFGQGTKLEIKR", "notes": "The same paragraph also says all VH were cloned into an IgG1 expression vector; copies: 2 + 2"}, "B2": {"name": "Fab clone 14.2 (phage-displayed) (Fab, V domains shown)", "VH": "B1 VH", "VL": "DVVMTQSPLSLPVTPGEPASISCRSSQSIVHSNGNTYLEWYLQKPGQSPQLLIYKASNRFSGVPDRFSGSGSGTDFTLKISRVEAEDVGVYYCFQGSRVPPGFGQGTKLEIK", "notes": "VH is deduced from the parental VH being kept in the library"}, "B3": {"name": "anti-ADDL antibody 19.3S33 (antibody, V domains shown)", "VH": "B1 VH", "VL": "B1 VL with N33S"}, "B4": {"name": "humanized anti-ADDL antibody h3B3 (antibody, V domains shown)", "VH": "B1 VH", "VL": "B2 VL with R98H, G102T", "notes": "Parental antibody; also called humanized 3B3; h3B3 (parental)"}, "B5": {"name": "Fab clone 7.2 (phage-displayed) (Fab, V domains shown)", "VH": "B1 VH", "VL": "B2 VL with R98Y, V99A", "notes": "as for B2"}, "B6": {"name": "Fab clone 13.1 (phage-displayed) (Fab, V domains shown)", "VH": "B1 VH", "VL": "B2 VL with R98K, V99A, P100H, G102S", "notes": "as for B2"}, "B7": {"name": "Fab clone 9.2 (phage-displayed) (Fab, V domains shown)", "VH": "B1 VH", "VL": "B2 VL with V99A, G102F", "notes": "as for B2"}, "B8": {"name": "anti-ADDL antibody 19.3T33 (antibody, V domains shown)", "VH": "B1 VH", "VL": "B1 VL with N33T"}, "B9": {"name": "Fab clone 11.4 (phage-displayed) (Fab, V domains shown)", "VH": "B1 VH", "VL": "B2 VL with P101V, G102R", "notes": "as for B2"}}, "key": {"[1]": {"target": "T1, amyloid β (Aβ)-derived diffusible ligands (ADDLs) (UniProt P05067 672-713)", "T1 construct": "domain: Aβ1-42; Soluble oligomers of Aβ1-42, with the number of chains per oligomer not fixed; They were prepared from HFIP film in DMSO/F12 and enriched on a 50 kDa filter; The result sentences say 'ADDLs'; also called ADDL oligomers; soluble …", "T1 sequence (P05067 672-713 limits assumed)": "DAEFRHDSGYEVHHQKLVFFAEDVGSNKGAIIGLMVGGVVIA", "assay": "ELISA, plate coated with ADDLs (50 pmol/well), anti-human IgG-alkaline phosphatase, luminescence; antibody kept one month at 4 °C", "method": "(§1) The codon AAT for N was mutated to AGT for S in 19.3S33 (SEQ ID NO: 55), ACT for T in 19.3T33 (SEQ ID NO: 56), GAA for E in 19.3E33 (SEQ ID NO: 67), or GAT for D in 19.3D33 (SEQ ID NO: 68), and the new condons in that position were confirmed by DNA sequencing. […] The expression and purification methods were described above in this example.\n(§2) Determination of EC50. High protein binding plates (Costar, Corning, Lowell, Mass.), were coated with target ligand in PBS overnight at 4° C. The concentration of coating protein was 100 pmol/well for Aβ40 (American Peptide, Sunnyvale, Calif.) and 50 pmol/well for ADDLs. ADDLs were generated as described in Example 1B. Next day, plates were washed five times with PBS+0.05% Tween-20 (Sigma Aldrich, St. Louis, Mo.) and blocked overnight with Casein blocking buffer (ThermoScientific, Waltham, Mass.) and 0.05% Tween-20. […] After 2 hours at room temperature incubation, the plates were washed and alkaline phosphatase conjugated anti-human IgG (ThermoScientific, Waltham, Mass.) was added at 0.08 μg/ml. After 45 minutes at room temperature incubation, the plates were washed and Tropix® CDP®-Star chemiluminescent substrate (Life Technologies™, Carlsbad, Calif.) was added. Luminescence was detected after 30 minutes on an EnVision® microplate reader (PerkinElmer, Waltham, Mass.)."}, "[2]": {"target": "T1, amyloid β (Aβ)-derived diffusible …", "assay": "ELISA, plate coated with ADDLs (50 pmol/well), anti-human IgG-alkaline phosphatase, luminescence; antibody kept one month at 25 °C", "method": "as §1, §2"}, "[3]": {"target": "T1, amyloid β (Aβ)-derived diffusible …", "assay": "ELISA, plate coated with ADDLs (50 pmol/well), anti-human IgG-alkaline phosphatase, luminescence; antibody kept one month at 40 °C", "method": "as §1, §2"}, "[4]": {"target": "T1, amyloid β (Aβ)-derived diffusible …", "assay": "ELISA, plate coated with ADDLs (50 pmol/well), anti-human IgG-alkaline phosphatase, luminescence; antibody not stored (0 timepoint)", "method": "as §2, with “Mass.). Curve fits were completed using GraphPad Prism (GraphPad Software, Inc., San Diego, Calif.) software.” for “Mass.).”"}, "[5]": {"target": "T1, amyloid β (Aβ)-derived diffusible …", "assay": "phage/Fab ELISA on ADDLs, anti-M13-HRP detection", "method": "Biotinylated ADDLs (bADDLs) or monomer Aβ1-40 or Aβ1-42 was added to a high-capacity streptavidin-coated plate (Sigma-Aldrich, St. Louis, Mo.) with 100 μL per well of coating reagent in PBS at 1 μM and incubated for two hours at room temperature. The plates were washed in PBS with 0.05% Tween (six times) and then PBS alone (three times) prior to blocking wells with 5% non-fat dry milk in PBS for one hour at room temperature. The wells were then washed and a serial dilution of antibody samples added to the plates and allowed to bind for two hours at room temperature. After incubation and washing, the antibody binding was detected with a goat anti-human IgG-Fc secondary antibody conjugated to horse radish peroxidase (HRP) (1:1,000; one hour at room temperature). The HRP label was visualized with tetramethyl benzidine (Virolabs, Chantilly, Va.) as a substrate and read at 450 nm on a microplate reader.\nAfter each round of panning, single colonies were randomly picked to produce phage in 96-well plates. The procedures for phage preparation in 96-well plate were similar to that described above except no phage precipitation step was used. Culture plates containing colonies growing in 120 μL of 2×TY medium with 100 μg/ml ampicillin and 0.1% glucose were incubated overnight in a HiGro® shaker (Genomic Solutions, Ann Arbor, Mich.) at 30° C. with shaking at 450 rpm. The phage supernatants (about 100 μL) were directly used for analysis in the ADDL binding ELISA described above. One difference is that the binding of phage to ADDLs was detected with an anti-M13-antibody conjugated to HRP (Amersham Bioscience, GE Healthcare, Waukesha, Wis.)."}, "[6]": {"target": "T1, amyloid β (Aβ)-derived diffusible …", "assay": "ELISA, plate coated with ADDLs (50 pmol/well), 12 point antibody titration, anti-human IgG-alkaline phosphatase, luminescence", "method": "as §2, with “Mass.). Curve fits were completed using GraphPad Prism (GraphPad Software, Inc., San Diego, Calif.) software.” for “Mass.).”"}, "[7]": {"target": "T1, amyloid β (Aβ)-derived diffusible …", "assay": "Biacore (SPR)"}, "[8]": {"target": "T1, amyloid β (Aβ)-derived diffusible …", "assay": "KinExA, equilibrium constant in solution"}, "[9]": {"target": "T1, amyloid β (Aβ)-derived diffusible …", "assay": "KinExA; constant for Aβ1-40 monomer over constant for ADDLs"}, "[10]": {"target": "T1, amyloid β (Aβ)-derived diffusible …", "assay": "Biacore (SPR); affinity for Aβ1-40 monomer over affinity for ADDLs"}}, "note": "Where a chain is given by its changes, count along the chain named."}
{"binder": "B1", "values": [{"measurement": "EC50 (read off the curve)", "setting": "[1]", "value": "~2", "unit": "nM"}, {"measurement": "EC50 (read off the curve)", "setting": "[2]", "value": "~2", "unit": "nM"}, {"measurement": "EC50 (read off the curve)", "setting": "[3]", "value": "~6", "unit": "nM"}, {"measurement": "EC50 (read off the curve)", "setting": "[4]", "value": "~1", "unit": "nM"}]}
{"binder": "B2", "values": [{"measurement": "binding result", "setting": "[5]", "value": "binds"}]}
{"binder": "B3", "values": [{"measurement": "binding result", "setting": "[6]", "value": "binds"}]}
{"binder": "B4", "values": [{"measurement": "Kd", "setting": "[7]", "value": 10, "unit": "nM"}, {"measurement": "Kd", "setting": "[8]", "value": 3.3, "unit": "nM"}, {"measurement": "Ratio (Aβ monomer/ADDL)", "setting": "[9]", "value": 13.6}, {"measurement": "Ratio (Aβ monomer/ADDL)", "setting": "[10]", "value": 10}]}
{"binder": "B5", "values": [{"measurement": "binding result", "setting": "[5]", "value": "binds"}]}
{"binder": "B6", "values": [{"measurement": "binding result", "setting": "[5]", "value": "binds"}]}
{"binder": "B7", "values": [{"measurement": "binding result", "setting": "[5]", "value": "binds"}]}
{"binder": "B8", "values": [{"measurement": "binding result", "setting": "[6]", "value": "binds"}]}
{"binder": "B9", "values": [{"measurement": "binding result", "setting": "[5]", "value": "binds"}]}
